± gives the half width of the 95% confidence interval.
Key:
[1] = folding stability dG unfold from trypsin proteolysis; higher = more stable
In short: (§1)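 Sequencing followed digestion of designed mini-proteins with trypsin and chymotrypsin, each at 11 concentrations in threefold dilutions together with a no-protease condition. The mini-proteins were under 80 residues, had no cysteine, sat in a PA-tagged cDNA display construct, and were kept only if AlphaFold2 dimer inter-PAE was above 15. From the counts, Bayesian fitting gave K50, and unfolding free energy was derived against a sequence-predicted unfolded-state K50 and a shared folded-state K50, per protease or combined.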

[2] = folding stability dG unfold (combined trypsin and chymotrypsin); higher = more stable
In short: as §1

[3] = folding stability dG unfold from chymotrypsin proteolysis; higher = more stable
In short: as §1

| Sequence | folding stability dG unfold [1] | folding stability dG unfold [2] | folding stability dG unfold [3] |
| --- | --- | --- | --- |
| SVVLDVPYENRPDLLATIRALVAEKAPPVVVFVEAPEAERARLRRELEALGFTVEPTPVPNRYRITFRPASA [r9_600_TrMRF] | 3.15 ± 0.085 kcal/mol | 3.15 ± 0.067 kcal/mol | 3.07 ± 0.058 kcal/mol |
| SAGGSAGGSAGGDKKDPGQPRQEVEIEIPVYDPNGKPKGPIEITMPAGQSLDEIADEIFNSAGGSAGGSAGG [r7_110_TrROS] | 0.758 ± 0.068 kcal/mol | 0.937 ± 0.13 kcal/mol | 1.05 ± 0.049 kcal/mol |
| SASPRTITVPVTRFPDGTVRFTIETPDKTITLTFPPSATFEEALEKLSPDPDKKITLVEKDPTTVTVAESAG [r14_404_JUSTAS] | 0.781 ± 0.051 kcal/mol | 0.873 ± 0.13 kcal/mol | 0.852 ± 0.16 kcal/mol |
| SAGGMPKTIEVEIVFKRDEEGKIGIDKIKKAAEELAKKFPEVKKVEVDIEEDPETDYVKVKVKVEVESAGGS [r8_258_TrMRF] | 1.75 ± 0.059 kcal/mol | 2.1 ± 0.14 kcal/mol | 2.34 ± 0.032 kcal/mol |
| SAGGSAGGSAGGSMPTYRITVEVDGKKYTITVREGMSPEEIAKRLKELYPNLTVKIEPVSAGGSAGGSAGGS [r4_155_TrROS_Hall] | 3.75 ± 0.13 kcal/mol | 4.04 ± 0.13 kcal/mol | 4.07 ± 0.15 kcal/mol |
| SAGGSAGGSDDTAEFEGPVNVTLTLDGKPVNINAWVTRLPPGWFRIVLPDGVIELPGGNLRVGSAGGSAGGS [r12_790_TrMRF] | 0.84 ± 0.039 kcal/mol | 1.16 ± 0.051 kcal/mol | 1.31 ± 0.069 kcal/mol |
| SAGGSPKAREERFEKTLPDGTVVPVTLTRLPDGTVRVETTTYTYNSPEPVASTSTTTLPEAEVAAALSAGGS [r16_470_JUSTAS] | 0.631 ± 0.099 kcal/mol | 0.686 ± 0.086 kcal/mol | 0.684 ± 0.11 kcal/mol |
| SAGMTFEVRYPLPPGQTHKEAREEVKDMVESIAREFMPEGWKIEPKDIDVDPDKGWIEYKVDIEIPPGMSAG [r5_146_TrROS] | 1.19 ± 0.12 kcal/mol | 1.72 ± 0.18 kcal/mol | 1.94 ± 0.12 kcal/mol |
| SAGGSAAVDLSERPPALPVPLKVEVIPIPETGSSLVLVTHPDGFVLLARVNPEGEVELLSAFSLDDSAGGSA [r15_790_TrMRF] | 1.56 ± 0.066 kcal/mol | 2.51 ± 0.14 kcal/mol | 2.86 ± 0.074 kcal/mol |
| SSEELRELILNEAAKLGVKIKEIKVKEDPSTNTVSIEITVPDGKVIKLSFTRTSDGGYSYDINELKAGLESA [r9_85_JUSTAS] | 5.35 ± 0.35 kcal/mol | > 6 kcal/mol | 6.2 ± 0.14 kcal/mol |
| SAGGSAGGSAGGSMELIPTPEDTVTVVETTPVAPTPNGTPVPATVTTTTLPKEEVEAAASAGGSAGGSAGGS [r4_238_JUSTAS] | 2.71 ± 0.057 kcal/mol | 2.1 ± 0.062 kcal/mol | 1.53 ± 0.03 kcal/mol |
| SAGGMEEIVKALPPEAGVVEIESEPLPLEDSILRRYRLRVYNPATGKWEELEVLIEYDKDGNIRRIVASAGG [r13_358_TrMRF] | 2.5 ± 0.043 kcal/mol | 3.6 ± 0.2 kcal/mol | 3.94 ± 0.051 kcal/mol |
| TIVIENASVEQIKNAIKEAIKEGKEVKIIIKASPEEKEKIIEELKKLPEIKKVEKLPNGSIKITIKAKELKS [r1_324_TrROS_Hall] | 1.76 ± 0.083 kcal/mol | 2.32 ± 0.66 kcal/mol | 2.82 ± 0.69 kcal/mol |
| SAGGSAGGSSTTPVTITVPESILDEIKKKAEELGIKVEVEIKESPENKKYATVTIEIPENVELSAGGSAGGS [r12_653_JUSTAS] | 0.935 ± 0.081 kcal/mol | 0.509 ± 0.14 kcal/mol | -0.248 ± 0.25 kcal/mol |
| SAGEERTVRVEIEIVVKTEEELEALKALFPNAEATRNEDGLLTLRLTIEVRVAPPVVVRDPETNELLELSAG [r5_129_TrROS_Hall] | 2.56 ± 0.088 kcal/mol | 2.46 ± 0.11 kcal/mol | 2.42 ± 0.049 kcal/mol |
| SAGGARREIVIEIEADTLEEALAAAREALAALEDPEDLTVTIVVRLPPPPPPPRPRRVRLDGEEVELRSAGG [r13_718_TrROS_Hall] | -0.384 ± 0.75 kcal/mol | 1.01 ± 0.22 kcal/mol | 1.32 ± 0.19 kcal/mol |
| SAGGSSMVDIKPGLVTEIRVETLPNGERVYVVEIPLENGERAVVKISEKFKSEEEKLKAIYEAVSKSAGGSA [r2_347_JUSTAS] | 1.71 ± 0.05 kcal/mol | 2.24 ± 0.12 kcal/mol | 2.47 ± 0.039 kcal/mol |
| SAGGSAWIWITYQFPPGGTLEQAKEQIVNYLQRLFGWKIEIPDIEVEREGNNWTVTFPIKIEPLPGSAGGSA [r15_105_TrROS] | 3.7 ± 0.16 kcal/mol | 4.18 ± 0.24 kcal/mol | 4.4 ± 0.098 kcal/mol |
| SAGGSALPEDATVKVEVTVVTLVYDPETGGFYLKVAKVEKEIRFDPKNGKLEVKVKKVEVKVFKLGSAGGSA [r15_517_TrMRF] | 2.96 ± 0.21 kcal/mol | 4.19 ± 0.33 kcal/mol | 4.41 ± 0.17 kcal/mol |
| SAGGSAGGMKLLKVVVERKDGSKRELEIPEELLVELGRPPTPEEIAKLLGIKPEDIVRVEIEDVSAGGSAGG [r6_166_TrMRF] | 3.65 ± 0.15 kcal/mol | 4.74 ± 0.2 kcal/mol | 4.87 ± 0.21 kcal/mol |
| SAGGSAGGEIPADAEIEEFEFGGKPYFLVRFPDGTAALYERKGDKWELIATVPVPPDSRIFFKGSAGGSAGG [r6_475_TrMRF] | 0.946 ± 0.037 kcal/mol | 1.12 ± 0.041 kcal/mol | 1.19 ± 0.086 kcal/mol |

| Sequence | folding stability dG unfold [1] | folding stability dG unfold [2] | folding stability dG unfold [3] |
| --- | --- | --- | --- |
| SAGGSMPYKTLEESESEIYDPSNGNVKYKVKTETILLPDGTILVKETIYDPETGTTETKTYTIPKGSAGGSA [r2_13_JUSTAS] | 1.54 ± 0.14 kcal/mol | 1.79 ± 0.1 kcal/mol | 1.82 ± 0.13 kcal/mol |
| SAGGSAGGSAGKVTLVFKTKEDALNAIKELAEKEGLKVKIVKIEELPNGLIKITVEIEKPSAGGSAGGSAGG [r11_304_TrROS_Hall] | 3.99 ± 0.25 kcal/mol | 4.22 ± 0.17 kcal/mol | 4.2 ± 0.095 kcal/mol |
| MKYTLTLTDPTTPTTSTLTVPNDPEKALALLREAKAANPNLTATLTGVTSEEIVEAAKKAGLKDIKPKTAAS [r1_114_JUSTAS] | 0.15 ± 0.13 kcal/mol | 0.316 ± 0.27 kcal/mol | 0.301 ± 0.27 kcal/mol |
| SAGGSAGGKKEIKIYLVSDLPEEDAIETAEKIKKGLAEELGVSPEELNITVEVAILDPENLELNPESAGGSA [r15_918_TrMRF] | 0.179 ± 0.049 kcal/mol | 0.1 ± 0.15 kcal/mol | 0.0161 ± 0.048 kcal/mol |
| SMKIKIKVETNPNGEKKIEIEIELKEEDIEFDEGMTLEERKEKLRELAEELAKKLKEEGKEVKIVEIEVESA [r9_751_TrROS_Hall] | 1.8 ± 0.067 kcal/mol | 2.1 ± 0.17 kcal/mol | 2.27 ± 0.048 kcal/mol |
| SAGGSAAPVSRVVELEFVLPPELVAEAVDALRKLPGVKASFELAEVLPDGYVRVRVTIEVPDDVDLSAGGSA [r15_441_TrMRF] | 3.46 ± 0.11 kcal/mol | 3.8 ± 0.073 kcal/mol | 3.95 ± 0.073 kcal/mol |
| SRDLLKELAEKFPNFEPKGVQEEPTDNGGVKLQVIARHPKNGRYYKIEITVPPDGKIEDIEIEPVPLDDLSA [r9_274_TrROS] | 2.3 ± 0.045 kcal/mol | 2.61 ± 0.09 kcal/mol | 2.823 ± 0.021 kcal/mol |
| SAGGSAGGSAGGETIELKLPNGKVLRVEKDKEKGKTYKIYDTKTKKLVKTFKSKEALKKASAGGSAGGSAGG [r7_72_TrROS_Hall] | 0.755 ± 0.07 kcal/mol | 1.02 ± 0.11 kcal/mol | 1.19 ± 0.17 kcal/mol |
| SAGGSAGGSMITLTLPDEEALRAYVEQLVADAGTEITEVTVTPLAPDTVEAEVSIDPTDPVGLSAGGSAGGS [r12_647_JUSTAS] | 1.09 ± 0.022 kcal/mol | 0.858 ± 0.098 kcal/mol | 0.426 ± 0.065 kcal/mol |
| SASVTTLTFTVTYPGGETETFTVTVPNLTEEEAKALAEKLAEEIQEKSKKPGVKVEVSITRYPADDPALSAG [r14_207_JUSTAS] | 3.9 ± 0.17 kcal/mol | 4.2 ± 0.18 kcal/mol | 4.13 ± 0.21 kcal/mol |
| SAGGSAGGSAGGKAKIVDVKIEKEGNTVTIEVKIEVDGKLIATAKVRFTGPDGKLEIEIESAGGSAGGSAGG [r7_133_TrROS_Hall] | 3.25 ± 0.16 kcal/mol | 3.15 ± 0.15 kcal/mol | 2.9 ± 0.27 kcal/mol |
| SAMIVVPATFDDRTFVLRIERLPDGSYLVDVEDPDVSREAVVEALRELLPEDAKIVLDPETNLVYVSFDSAG [r14_370_TrMRF] | 3.34 ± 0.11 kcal/mol | 3.55 ± 0.086 kcal/mol | 3.73 ± 0.052 kcal/mol |
| SAGGSAGGSEWTIESIRPRPDGSLIARVRPEGVNVSVEVEFDTLEELLAFAKLLEELGGKVTGSAGGSAGGS [r20_177_TrMRF] | 1.62 ± 0.04 kcal/mol | 1.82 ± 0.058 kcal/mol | 1.98 ± 0.023 kcal/mol |
| SAGGSAGGSASMTVRATLPNGEEIEFEADVIKADPGGDSVTVYLILPNGGEIPFEVELEEEESAGGSAGGSA [r18_163_TrMRF] | 0.37 ± 0.042 kcal/mol | 0.574 ± 0.076 kcal/mol | 0.706 ± 0.19 kcal/mol |
| SAGGSKEKFLTIEHPDYVIKAYVDYPKEGKLRVRIEIYDKNGKLLKTIEVEAYSPEEVLEFLEKAASAGGSA [r2_82_TrMRF] | 2.48 ± 0.1 kcal/mol | 3.05 ± 0.14 kcal/mol | 3.28 ± 0.13 kcal/mol |
| SAGGSAGGSPPPDIKVEVESYENPDGQRYYRVTITIDDGRPFDIWMPPGMSPSEAKNWLKDLLSAGGSAGGS [r12_1019_TrROS] | 3.35 ± 0.08 kcal/mol | 3.78 ± 0.094 kcal/mol | 3.964 ± 0.035 kcal/mol |
| SAGGSAGGSAPGKSITITFLFIWPDGWILVMKITFDPDGPGDIDIEWQWIPIPPPEPPPEDPSAGGSAGGSA [r18_409_TrROS] | 3.61 ± 0.29 kcal/mol | 5.16 ± 0.46 kcal/mol | 5.37 ± 0.32 kcal/mol |
| SAGGSAGGSAMLVIRVYFEDTGRVLTLTADSEEEALEAIKRLLPPGAKIKKVEIFEVSEEDLSAGGSAGGSA [r18_350_TrROS_Hall] | 4.08 ± 0.071 kcal/mol | 4.33 ± 0.058 kcal/mol | 4.439 ± 0.041 kcal/mol |
| SAGGSNVEVERHPDGHMTFTFPDEDGKDVKITIHMHPDGMYMIRVPGNNQPIYFPPGQSIEDLLKLSAGGSA [r2_338_TrROS] | 2.2 ± 0.069 kcal/mol | 2.63 ± 0.098 kcal/mol | 2.88 ± 0.032 kcal/mol |
| SAGGGPFGIPFPFPIEDPDRLDLVEGLVAELEEFFRSLGAGPLTAERVGDTTYVVLVPFDGKPIVSGSAGGS [r16_703_TrMRF] | 1.51 ± 0.025 kcal/mol | 1.8 ± 0.089 kcal/mol | 1.95 ± 0.066 kcal/mol |
| SAGGSAGAPLVLAEVELDPETGEVRIRVYDPVTGKVYEYTTPGSLADAIREIERETGIPITEVVVASAGGSA [r15_101_TrMRF] | 3.47 ± 0.099 kcal/mol | 3.63 ± 0.077 kcal/mol | 3.73 ± 0.073 kcal/mol |
